B1: mouse AGR2 (21-175), wild-type [mouse] / MBP-hIRE1b_LD_(35-428)-AviTag-His7 [modified: biotin on the AviTag (endogenous biotinylation of a fraction of the protein in E. coli); biotin on the AviTag (endogenous biotinylation of a fraction of … (parent complex)
chain 1: KDTTVKSGAKKDPKDSRPKLPQTLSRGWGDQLIWTQTYEEALYRSKTSNRPLMVIHHLDECPHSQALKKVFAEHKEIQKLAEQFVLLNLVYETTDKHLSPDGQYVPRIVFVDPSLTVRADITGRYSNRLYAYEPSDTALLYDNMKKALKLLKTEL
chain 2: LRPENLLLVSTLDGSLHALSKQTGDLKWTLRDDPVIEGPMYVTEMAFLSDPADGSLYILGTQKQQGLMKLPFTIPELVHASPCRSSDGVFYTGRKQDAWFVVDPESGETQMTLTTEGPSTPRLYIGRTQYTVTMHDPRAPALRWNTTYRRYSAPPMDGSPGKYMSHLASCGMGLLLTVDPGSGTVLWTQDLGVPVMGVYTWHQDGLRQLPHLTLARDTLHFLALRWGHIRLPASGPRDTATLFSTLDTQLLMTLYVGKDETGFYVSKALVHTGVALVPRGLTLAPADGPTTDEVTLQVSGEREGSPSTAVRYPSGSVALPSQWLLIGHHELPPVLHTTMLRVHPTLGSGTAETRPPENTQAPAFFLELLSLSREKLWDSELHPEEKTPDSYLGL

Variants of: B1
Test: BLI; HK buffer supplemented with 0.05% Triton X-100 and 1 mM TCEP; 30 °C; IRE1β LD probe immobilised on streptavidin biosensors; parent: 19 nM

screen value | Variant
124 µM | chain 1 KDTTVKSGAKKDPKDSRPKLPQTLSRGWGDQLIWTQTYEEALYRSKTSNRPLMVIHHLDESPHSQALKKVFAEHKEIQKLAEQFVLLNLVYETTDKHLSPDGQYVPRIVFVDPSLTVRADITGRYSNRLYAYEPSDTALLYDNMKKALKLLKTEL [chain 1 C61S]
78.5 µM | chain 1 KDTTVKSGAKKDPKDSRPKLPQTLSRGWGDQLIWTQTYEEALYRSKTSNRPLMVIHHLDEEPHSQALKKVFAEHKEIQKLAEQFVLLNLVYETTDKHLSPDGQYVPRIVFVDPSLTVRADITGRYSNRLYAYEPSDTALLYDNMKKALKLLKTEL [chain 1 C61E]

Variants of: B1
Test: BLI; 90 µM AGR2 variant (highest concentration point); HK buffer supplemented with 0.05% Triton X-100 and 1 mM TCEP; 30 °C; parent: 0.6; read off a plot

response | Variant
~0.3 nm | chain 1 KDTTVKSGAKKDPKDSRPKLPQTLSRGWGDQLIWTQTYEEALYRSKTSNRPLMVIHHLDESPHSQALKKVFAEHKEIQKLAEQFVLLNLVYETTDKHLSPDGQYVPRIVFVDPSLTVRADITGRYSNRLYAYEPSDTALLYDNMKKALKLLKTEL [chain 1 C61S]
~0.23 nm | chain 1 KDTTVKSGAKKDPKDSRPKLPQTLSRGWGDQLIWTQTYEEALYRSKTSNRPLMVIHHLDEEPHSQALKKVFAEHKEIQKLAEQFVLLNLVYETTDKHLSPDGQYVPRIVFVDPSLTVRADITGRYSNRLYAYEPSDTALLYDNMKKALKLLKTEL [chain 1 C61E]
